B1: CCK-511A (antibody, V domains shown)
VH: EVQVVESGGGLVQPGKSLRLSCAASGFPFSVYWMTWVRQAPGKGLEWVANIKQDGSEKYYVDSVKGRFTISRDNAKNSLYLQMNSLRAEDTAVYCCASGYHLFDYWGQGTLVTVSS
VL: not shown
notes: AlivaMab chimeric IgG, human kappa LC
B2: CCK-526A (antibody, V domains shown)
VH: B1 VH with P28T, V31T
VL: not shown
notes: as for B1
B3: CCK-505A (antibody, V domains shown)
VH: EVQLVESGGGLVQPGGSLRLSCAASGFTFSSYSMNWVRQAPGKGLEWVSYISSSSSTIYYADSVKGRFTISRDNAKNSLYLQMNSLRDEDTAVYYCAREGERFCGADCYPHWFDPWGQGTLVTVSS
VL: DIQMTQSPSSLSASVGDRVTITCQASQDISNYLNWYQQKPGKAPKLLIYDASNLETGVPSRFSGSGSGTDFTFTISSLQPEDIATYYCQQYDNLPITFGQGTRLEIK
notes: as for B1
B4: CCK-417A (antibody, V domains shown)
VH: QVTLRESGPALVKPTQTLTLTCTFSGFSLSTSGMCVSWIRQPPGKALECLALIDWDDDKYYSTSLKTRLTISKDTSKNQVVLTMTNMDPVDTATYYCARTQLGIADYWGQGTLVTVSS
VL: AIRMTQSPSSFSASTGDRVTITCRASQGISSYLAWYQQKPGKAPKLLIYAASTLQSGVPSRFSGSGSGTDFTLTISCLQSEDFATYYCQQYYSYPFTFGPGTKVDIK
notes: as for B1
B5: CCK-422A (antibody, V domains shown)
VH: QVQLQESGPGLVKPSETLSLTCSVSGGSISSYYWSWIRQPPGKGLEWIGYVSYSGGTNYNPSLKSRVTISVDTSKNQFSLKLSSVTAADTAVYYCARGFDYWGQGTLVTVSS
VL: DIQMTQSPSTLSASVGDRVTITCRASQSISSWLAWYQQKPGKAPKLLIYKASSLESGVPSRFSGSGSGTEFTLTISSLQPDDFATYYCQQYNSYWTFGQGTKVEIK
notes: as for B1
B6: CCK-542A (antibody, V domains shown)
VH: QVQLQESGPGLVKPSETLSLTCTVSGGSISSYYWSWIRQPAGKGLEWIGRIYSSGSINYNPSLKSRVTMSVDTSKNQFSLKLSSVTAADTAVFYCARDRAFYGMDVWGQGTTVTVSS
VL: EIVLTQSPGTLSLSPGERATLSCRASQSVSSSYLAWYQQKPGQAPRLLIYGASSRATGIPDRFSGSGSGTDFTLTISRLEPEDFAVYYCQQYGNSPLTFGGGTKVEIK
notes: as for B1
B7: CCL-208A (antibody, V domains shown)
VH: QVQLVQSGAEVKKPGASVKVSCKASGYTFTDYYMHWVRQAPGQGLEWMGWINPNSGGANYAQKFQGRVTMTRDTSISIAYMELSRLRSDDTAIYYCARGRLTFFDYWGQGTLVTVSS
VL: not shown
notes: AlivaMab chimeric IgG, human lambda LC
B8: CCL-209A (antibody, V domains shown)
VH: QVQLQESGPGLVKPSETLSLTCTVSGGSISSFYWSWIRQSPGRGLEWIGYIFYSGSTKYNPSLMSRVTISADTSKNQFSLKLSSVTAADTAVYYCARGRLGNYFDYWGQGTLVTVSS
VL: not shown
notes: as for B7
B9: CCK-522A (antibody, V domains shown)
VH: QITLKESGPTLVKPTQTLTLTCTFSGFSLSTSGVGVGWIRQPPGKALEWLALIYWNDDKRYSPSLKSRLTITKDTSKNQVVLTMTNMDPVDTATYYCAHQERRSGWSFDYWGQGTLVSVSS
VL: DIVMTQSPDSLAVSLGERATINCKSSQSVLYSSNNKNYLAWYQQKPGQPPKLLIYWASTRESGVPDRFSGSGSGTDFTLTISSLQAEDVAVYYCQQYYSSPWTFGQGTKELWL
notes: as for B1
B10: CCL-206A (antibody, V domains shown)
VH: QVQLQESGPGLVKPSETLSLTCTVSGGSISSYYWTWIRQPPGKGLEWIGYIYYSGITNYNPSLKSRVTMSMDTSKNQFSLRLSSVTAADTAVYYCARGRIIGAFDIWGQGTMVTVSS
VL: not shown
notes: as for B7
B11: CCL-327A (antibody, V domains shown)
VH: QVQLQESGPGLVKPSETLSLTCSVSGGSISSYHWSWIRQPAGKGLEWIGRIYTGGSTNYNPSLKSRVTMSVDTSKNQFSLKLSSVTAADTAVYYCARERLTGYFDYWGQGTLVTVSS
VL: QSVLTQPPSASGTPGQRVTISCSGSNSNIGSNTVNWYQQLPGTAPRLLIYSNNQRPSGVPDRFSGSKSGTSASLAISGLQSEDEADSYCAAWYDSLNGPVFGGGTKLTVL
notes: as for B7
B12: CCL-249A (antibody, V domains shown)
VH: B11 VH with S23T, H33Y, I48V, I51L, Y52F, G54S, T86I
VL: not shown
notes: as for B7
B13: CCL-217A (antibody, V domains shown)
VH: B11 VH with S23T, H33Y, T53S, G54S, S56T, D72E, K81N, L100I, Y103H
VL: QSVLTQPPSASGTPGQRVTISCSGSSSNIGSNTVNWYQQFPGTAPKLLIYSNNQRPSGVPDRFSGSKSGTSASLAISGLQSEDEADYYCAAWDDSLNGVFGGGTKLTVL
notes: as for B7
B14: CCL-340A (antibody, V domains shown)
VH: EVQLVESGGGLVKPGGSLRLSCAASGFTFSSYSMKWVRQAPVKGLEWVSSISSSSSYIYYGDSVKGRFTISRDNAKNSLYLQMNSLRAEDTAVYYCARERLGRAFDIWGQGTMVTVSS
VL: not shown
notes: as for B7
B15: CCL-215A (antibody, V domains shown)
VH: EVQLVESGGGLVQPGGSLRLSCAASGFTFSSYSMNWVRQAPGKGLEWVSYISSSSSTIYYADSVKGRFTISSDNAKNSLYLQMDSLRDEDTAVYYCARDRLGIPFDYWGQGTLVTVSS
VL: not shown
notes: as for B7
B16: CCL-225A (antibody, V domains shown)
VH: EVQLVESGGGLVKPGGSLRLSCAASGFTFSSYNMNWVRQAPGKGLEWVSSISSSSNYIYYADSVKGRFTISGDTAKNSLFLQMISLRVEDTAVYYCARDRLGIPFDYWGQGSLVTVSS
VL: not shown
notes: as for B7
B17: CCL-329A (antibody, V domains shown)
VH: QVQPQESGPGLVKPSETLSLTCTVSGGSISGYYWSWIRQPAGTGLEWIGRIYTSGSTNYNSSLKSRVTMSVDTSKNQFSLKLSSVTAADTAVYYCARERMATIFDYWGQGTLVTVSS
VL: not shown
notes: as for B7
B18: CCL-310A (antibody, V domains shown)
VH: EVQLVESGGGLVQPGGSLRLSCAASGFTFSNYWMRWVRQAPGKGLEWVANIKQDGSEKYYVDSVKGRFTISRDNAKYSLYLQMNSLRAEDTAVYYCARDRLGIFDYWGQGTLVTVSS
VL: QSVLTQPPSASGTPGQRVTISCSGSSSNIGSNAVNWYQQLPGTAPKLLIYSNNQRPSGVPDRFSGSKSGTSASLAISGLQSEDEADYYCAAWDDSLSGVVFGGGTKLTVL
B19: CCL-313A (antibody, V domains shown)
VH: QVQLQESGPGLVKPSETLSLTCTVSGGSISSYYWSWIRQPPGKGLEWIGYIYYTGSTNYNPSLKSRVTISVDTSKNQFSLKLSSVTAADTAVYYCARGWWELTFFDYWGQGTLVTVSS
VL: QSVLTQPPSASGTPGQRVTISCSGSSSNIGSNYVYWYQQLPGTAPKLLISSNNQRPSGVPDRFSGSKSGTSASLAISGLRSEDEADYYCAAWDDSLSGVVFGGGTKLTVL
notes: as for B7
B20: CCL-231A (antibody, V domains shown)
VH: QVQLQESGPGLVKPSETLSLTCTVSGGSISSYYWSWIRQPAGKGLEWIGRIYTSGNTNYNPSLKSRVTMSLDTSKNQFSLKLSSVTAADTAVYYCARVGAIGVDAFDIWGQGTMVTVSS
VL: QSALTQPASVSGSPGQSITISCTGTSSDVGSYNLVSWYQQHPGKAPKLMIYEGSKRPSGVSNRFSGSKSGNTASLTISGLQAEDEADYYCCSYAGSSTFVVFGGGTKLTVL
notes: as for B7
B21: CCL-331A (antibody, V domains shown)
VH: QVQLQESGPGLVKPSETLSLTCTVSGGSISSYYWSWIRQPAGKGLEWIGRIYTSGSTNYNPSLKSRVTMSVDTSKNQFSLKLSSVTAADTAVYYCAREGLRGFDPWGQGTLVTVSS
VL: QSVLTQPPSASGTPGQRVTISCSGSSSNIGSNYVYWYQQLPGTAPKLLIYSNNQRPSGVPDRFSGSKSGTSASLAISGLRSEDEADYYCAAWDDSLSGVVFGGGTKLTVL
notes: as for B7

Where a chain is given by its changes, count along the chain named.

One assay has as its target T1, human CD115 extracellular domain (Sino Biological 10161-H08H) (human, UniProt P07333 20-517).
T1 construct: extracellular domain; bought recombinant protein; also called huCD115; hu-CD115
The experiment in a line: competition ELISA, competitor TMR 35A.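 Note: clonal hybridoma supernatant antibodies added to wells after the competitor mouse antibody, lost binding signal puts an antibody in that competitor's epitope bin; low signal means same epitope bin as the mouse competitor antibody.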
With B1, the “signal vs NO COMP=100” value was determined as 76%.

For the molecule B2, the “signal vs NO COMP=100” value came to 82%.

Regarding B3, the “signal vs NO COMP=100” value came to 110%.

Consider B4, for which the “signal vs NO COMP=100” value was found to be 110%.

As to B5, the “signal vs NO COMP=100” value was 111%.

As to B6, the “signal vs NO COMP=100” value came out at 111%.

A further assay concerns the target T1, human CD115 extracellular domain (Sino …). The experiment in a line: ELISA, supernatant on huCD115.
For the molecule B7, the binding result is “binds”.

As for B8, the binding result is reported as “binds”.

Another assay shares this target. Put plainly: competition ELISA, competitor TMR 44B.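 Note: binding of antibodies from single-clone hybridoma supernatants to huCD115 measured with the competitor antibody present, a drop in signal meaning both share an epitope bin; low signal means same epitope bin as the mouse competitor antibody.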
Regarding B1, the “signal vs NO COMP=100” value stood at 2%.

B2: the “signal vs NO COMP=100” value amounted to 3%.

As for B9, the “signal vs NO COMP=100” value is 24%.

B3: the “signal vs NO COMP=100” value came to 10%.

On to B4, for which the “signal vs NO COMP=100” value came out at 19%.

Consider B5, for which the “signal vs NO COMP=100” value turned out to be 31%.

For the molecule B6, the “signal vs NO COMP=100” value stood at 10%.

The target is the same in another assay. Put plainly: competition ELISA, competitor TMR 24A.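 Note: clonal anti-huCD115 hybridoma supernatant antibodies bound with a competitor mouse antibody present, and failure to bind puts a clone in that competitor's epitope bin; low signal means same epitope bin as the mouse competitor antibody.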
For B1, the “signal vs NO COMP=100” value was determined as 99%.

As to B2, the “signal vs NO COMP=100” value worked out at 68%.

Turning to B9, the “signal vs NO COMP=100” value worked out at 33%.

In the case of B3, the “signal vs NO COMP=100” value was found to be 0%.

As for B4, the “signal vs NO COMP=100” value was 6%.

For the molecule B5, the “signal vs NO COMP=100” value amounted to 11%.

Regarding B6, the “signal vs NO COMP=100” value came out at 94%.

For a further assay the target is unchanged. Put plainly: competition ELISA, competitor TMR 20A.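 Note: epitope binning by ELISA, anti-huCD115 hybridoma supernatant antibodies tested for binding to huCD115 with the competitor antibody present, loss of binding placing them in the competitor's bin; low signal means same epitope bin as the mouse competitor antibody.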
For B1, the “signal vs NO COMP=100” value came to 77%.

Consider B2, for which the “signal vs NO COMP=100” value was 92%.

On to B9, for which the “signal vs NO COMP=100” value worked out at 34%.

Turning to B3, the “signal vs NO COMP=100” value was 53%.

With B4, the “signal vs NO COMP=100” value came to 110%.

Turning to B5, the “signal vs NO COMP=100” value turned out to be 107%.

For the molecule B6, the “signal vs NO COMP=100” value is 7%.

Another assay has the same target. Put plainly: competition ELISA, competitor TMR 95A.
For the molecule B1, the “signal vs NO COMP=100” value was 3%.

Take B2: the “signal vs NO COMP=100” value was determined as 9%.

Turning to B9, the “signal vs NO COMP=100” value turned out to be 7%.

Take B3: the “signal vs NO COMP=100” value came out at 1%.

Regarding B4, the “signal vs NO COMP=100” value was found to be 3%.

Regarding B5, the “signal vs NO COMP=100” value came to 6%.

B6: the “signal vs NO COMP=100” value is 23%.

The target is the same in another assay. The experiment in a line: SPR ProteOn, supernatant mAb captured on anti-mouse IgG, Hu CD115 analyte.
B10 displayed a Kd of 0.495 nM, a koff of 2.92e-05 s⁻¹ and a kon of 59000 M⁻¹ s⁻¹.

For B11, the Kd came out at 1.41 nM, the koff is 0.000189 s⁻¹ and the kon was 133000 M⁻¹ s⁻¹.

For B12, the affinity, expressed as Kd, was 0.599 nM; the koff worked out at 8.91e-05 s⁻¹; the kon was 149000 M⁻¹ s⁻¹.

Take B13: the Kd came to 1.22 nM, the koff was 0.00012 s⁻¹ and the kon was found to be 98100 M⁻¹ s⁻¹.

The molecule B14 gave a Kd of 0.367 nM, a koff of 2.72e-05 s⁻¹ and an on-rate constant (kon) of 74100 M⁻¹ s⁻¹.

The molecule B15 came in with a Kd of 0.215 nM, a koff of 1.83e-05 s⁻¹ and a kon of 85300 M⁻¹ s⁻¹.

Take B16: the Kd stood at 0.277 nM, the koff stood at 1.38e-05 s⁻¹ and the kon came to 50000 M⁻¹ s⁻¹.

B17 showed a Kd of 0.038 nM, an off-rate (koff) of 4.46e-06 s⁻¹ and a kon of 118000 M⁻¹ s⁻¹.

Regarding B18, the Kd worked out at 0.079 nM, the koff was found to be 4.35e-06 s⁻¹ and the kon is 50600 M⁻¹ s⁻¹.

On to B19, for which the Kd came out at 1.24 nM, the koff amounted to 9.09e-05 s⁻¹ and the kon came to 73600 M⁻¹ s⁻¹.

The molecule B20 gave a Kd of 0.578 nM, a koff of 4.71e-05 s⁻¹ and a kon of 81000 M⁻¹ s⁻¹.

In turn, B21 displayed a Kd of 0.118 nM, a koff of 2.2e-05 s⁻¹ and an association rate constant (kon) of 186000 M⁻¹ s⁻¹.

The next assay shares this target. Put plainly: competition ELISA, competitor TMR 100A.
Turning to B1, the “signal vs NO COMP=100” value came out at 91%.

Regarding B2, the “signal vs NO COMP=100” value turned out to be 84%.

For B9, the “signal vs NO COMP=100” value was determined as 67%.

On to B3, for which the “signal vs NO COMP=100” value came to 111%.

For the molecule B4, the “signal vs NO COMP=100” value was 113%.

B5: the “signal vs NO COMP=100” value stood at 111%.

As to B6, the “signal vs NO COMP=100” value is 76%.
